The values below come from patent publication US11248019B2, “Trityl-mono-GalNAc compounds and their use” (Hoffmann-La Roche Inc., priority 2016, dated 2022).

What all share (type): in vivo, C57BL6/J mice
Data set [1] deals with ApoB mRNA. Description: ApoB mRNA knockdown in liver and kidney by qPCR, single iv dose 0.1 mg/kg, day 7 or 14 (Example 7). As to conditions: 0.1 mg/kg single iv dose. The method, then:
(§1) ApoB mRNA knockdown was analyzed by qPCR. In brief, RNA was isolated from homogenized liver and kidney using MagnaPure RNA Isolation and purification system (catalog #03604721001 and #05467535001; Roche) according to the manufacturer's instructions. RT-QPCR was done using Taqman Fast Universal PCR Master Mix 2×(Applied Biosystems Cat #4364103) and Taqman gene expression assay (mApoB, Mn01545150_m1 and mGAPDH #4352339E) following the manufacturers protocol.
(§2) Female C57BL6/J mice (5/group appr. 20 g at arrival) were injected intravenous (iv) with a single dose saline or 0.1 mg/kg of GalNAc conjugated LNA antisense oligonucleotide (Compound J, K, L, B or C of the invention or reference compound M). Blood samples of 50 μl were collected pre-dosing at day minus 6, and post dosing at day 3, 7, 10 and 14. The animals were sacrificed at day 7 or 14 and total serum was collected as well as liver and kidney.
ApoB mRNA knock down was measured as described in example 4.

Data set [2] is described as follows: Oligonucleotide content in liver and kidney by ELISA (Example 7). As to conditions: 0.1 mg/kg single iv dose. The method, then:
as §2
The oligonucleotide content in the liver and kidney was measured using ELISA (see for example Straarup et al 2010 Nucleic Acid Res Vol 38 pp 7100-7111), results are shown in Table 16.

The nature of the next data set: ALT in serum (Example 7). As to conditions: 0.1 mg/kg single iv dose. As to the method:
as §2
ALT (Alanine aminotransferase) was measured using ABX Pentra ALT CP reagent (A11A01627 Triolab, Brondby, Denmark. The results are shown in table 17.

The nature of data set [3]: Oligonucleotide content in liver and kidney by ELISA (Example 4). As to conditions: for Oligonucleotide content, Kidney / Oligonucleotide content, Liver: day 10. As to the method: (§3) Female C57BL6/J mice (5/group appr. 20 g at arrival) were injected subcutaneous (sc) with a single dose saline or 0.25 mg/kg unconjugated LNA-antisense oligonucleotide (compound F) or with 0.25 mg/kg or 0.1 mg/kg of GalNAc conjugated LNA antisense oligonucleotide (Compound C or E of the invention or reference compound G). Blood samples of 50 μl were collected pre-dosing at day minus 6, and post dosing at day 3 and 7. The animals were sacrificed at day 10 and total serum was collected as well as liver and kidney.
The oligonucleotide content in the liver and kidney was measured using ELISA (see for example Straarup et al 2010 Nucleic Acid Res Vol 38 pp 7100-7111), results are shown in Table 6.

Data set [4] relates to ApoB mRNA. Description: ApoB mRNA knockdown in liver and kidney by qPCR, single sc dose, sacrifice day 10 (Example 4). Particulars: for ApoB mRNA expression as % of saline, mRNA kidney: day 10, kidney; for ApoB mRNA expression as % of saline, mRNA liver: day 10, liver; for knock down of ApoB mRNA compared to the GalNAc2 cluster conjugated LNA oligonucleotide (compound G) / knock down of ApoB mRNA in the liver compared to unconjugated (naked) oligonucleotide (compound F): in words; for knock down of ApoB mRNA compared to the GalNAc2 cluster conjugated LNA oligonucleotide (compound G): high dose (0.25 mg/kg); for knock down of ApoB mRNA in the liver compared to unconjugated (naked) oligonucleotide (compound F): single sc dose, day 10. The method, then: as §3, §1

As to “5′-cOaOGS^mCSaStStSgSgStSaStSTS^mCSA-3′ [K]”, the “ApoB mRNA/mGAPDH expression as % of saline, Avg kidney” value is listed as 80.2 % of saline with ApoB mRNA [1] (Day 7, kidney) and 86.2 % of saline in the data set with ApoB mRNA [1] (Day 14, kidney). In addition, the “ApoB mRNA/mGAPDH expression as % of saline, Avg liver” value in the data set with ApoB mRNA [1] (Day 7, liver) is given as 48.7 % of saline; in the data set on ApoB mRNA [1] (Day 14, liver), 112.4 % of saline. For the same substance, the “Oligonucleotide content, Avg kidney” value in data set [2] (Day 7, kidney tissue) is 0.275 µg/g; in data set [2] (Day 14, kidney tissue), 0.129 µg/g. Also, the “Oligonucleotide content, Avg liver” value in data set [2] (Day 7, liver tissue) amounted to 0.401 µg/g; in data set [2] (Day 14, liver tissue), 0.173 µg/g. The “ALT levels (U/L) in serum as % of saline” value in “ALT in serum (Example 7)” (Day 7) is on record as 170.3 % of saline; in “ALT in serum (Example 7)” (Day 14), 77.3 % of saline.
“5′-GS^mCSaStStSgSgStSaStSTS^mCSAOcOa-3′ [E]”: in data set [3] (0.1 mg/kg single sc dose), the “Oligonucleotide content, Kidney” value is listed as 0.094 μg/g tissue and the “Oligonucleotide content, Liver” value is listed as 0.021 μg/g tissue. In addition, in data set [3] (0.25 mg/kg single sc dose), the “Oligonucleotide content, Kidney” value came to 0.243 μg/g tissue and the “Oligonucleotide content, Liver” value is 0.069 μg/g tissue. In data set [3] (in words), the “uptake in liver and kidney compared to the unconjugated oligonucleotide (compound F)” value is “enhanced uptake in the liver and reduced uptake in the kidney”. Besides, in the data set with ApoB mRNA [4] (0.1 mg/kg single sc dose), the “ApoB mRNA expression as % of saline, mRNA kidney” value is recorded as 84.8 % of saline and the “ApoB mRNA expression as % of saline, mRNA liver” value is reported as 60.5 % of saline. In addition, in the data set on ApoB mRNA [4] (0.25 mg/kg single sc dose), the “ApoB mRNA expression as % of saline, mRNA kidney” value was 51.0 % of saline and the “ApoB mRNA expression as % of saline, mRNA liver” value was 34.9 % of saline. Also, in the data set with ApoB mRNA [4], the “knock down of ApoB mRNA compared to the GalNAc2 cluster conjugated LNA oligonucleotide (compound G)” value is on record as “comparable” and the “knock down of ApoB mRNA in the liver compared to unconjugated (naked) oligonucleotide (compound F)” value is reported as “improved knock down”.
As to “5′-cOaOGS^mCSaStStSgSgStSaStSTS^mCSA-3′ [Compound C]”, the “ApoB mRNA/mGAPDH expression as % of saline, Avg kidney” value is 93.8 % of saline in the data set on ApoB mRNA [1] (Day 7, kidney) and 74.4 % of saline with ApoB mRNA [1] (Day 14, kidney). The “ApoB mRNA/mGAPDH expression as % of saline, Avg liver” value in the data set with ApoB mRNA [1] (Day 7, liver) is on record as 63.2 % of saline; in the data set on ApoB mRNA [1] (Day 14, liver) it was 116.3 % of saline. Besides, the “Oligonucleotide content, Avg kidney” value in data set [2] (Day 7, kidney tissue) amounted to 0.307 µg/g; in data set [2] (Day 14, kidney tissue), 0.118 µg/g. Also, the “Oligonucleotide content, Avg liver” value in data set [2] (Day 7, liver tissue) came to 0.493 µg/g; in data set [2] (Day 14, liver tissue), 0.209 µg/g. For the same substance, the “Oligonucleotide content, Kidney” value in data set [3] (0.1 mg/kg single sc dose) and in data set [3] (0.25 mg/kg single sc dose) was 0.080 μg/g tissue throughout. Also, the “Oligonucleotide content, Liver” value in data set [3] (0.1 mg/kg single sc dose) and in data set [3] (0.25 mg/kg single sc dose) was 0.028 μg/g tissue in each case. The “uptake in liver and kidney compared to the unconjugated oligonucleotide (compound F)” value in data set [3] (in words) is “enhanced uptake in the liver and reduced uptake in the kidney”. Also, in data set [3] (in words, high dose), the “liver/kidney distribution ratio compared to GalNAc2 conjugated LNA oligonucleotide (compound G)” value is listed as “improved liver/kidney distribution ratio”. For the same substance, the “ApoB mRNA expression as % of saline, mRNA kidney” value in the data set on ApoB mRNA [4] (0.1 mg/kg single sc dose) is listed as 72.4 % of saline; in the data set with ApoB mRNA [4] (0.25 mg/kg single sc dose), 56.1 % of saline. Also, the “ApoB mRNA expression as % of saline, mRNA liver” value with ApoB mRNA [4] (0.1 mg/kg single sc dose) is recorded as 69.6 % of saline; in the data set with ApoB mRNA [4] (0.25 mg/kg single sc dose) it was 24.0 % of saline. Moreover, the “knock down of ApoB mRNA compared to the GalNAc2 cluster conjugated LNA oligonucleotide (compound G)” value in the data set on ApoB mRNA [4] is “better knockdown”. Moreover, the “knock down of ApoB mRNA in the liver compared to unconjugated (naked) oligonucleotide (compound F)” value with ApoB mRNA [4] is “improved knock down”. Further, the “ALT levels (U/L) in serum as % of saline” value in the data set “ALT in serum (Example 7)” (Day 7) was 136.7 % of saline; in the data set “ALT in serum (Example 7)” (Day 14), 111.3 % of saline.
Consider “5′-cOaOGS^mCSaStStSgSgStSaStSTS^mCSA-3′ [B]”, for which the “ApoB mRNA/mGAPDH expression as % of saline, Avg kidney” value was 62.5 % of saline in the data set on ApoB mRNA [1] (Day 7, kidney) and 100.3 % of saline in the data set on ApoB mRNA [1] (Day 14, kidney). The “ApoB mRNA/mGAPDH expression as % of saline, Avg liver” value in the data set with ApoB mRNA [1] (Day 7, liver) is recorded as 49.2 % of saline; in the data set with ApoB mRNA [1] (Day 14, liver), 112.8 % of saline. Moreover, the “Oligonucleotide content, Avg kidney” value in data set [2] (Day 7, kidney tissue) came to 0.353 µg/g; in data set [2] (Day 14, kidney tissue) it was 0.152 µg/g. The “Oligonucleotide content, Avg liver” value in data set [2] (Day 7, liver tissue) stood at 0.161 µg/g; in data set [2] (Day 14, liver tissue) it was 0.066 µg/g. Besides, the “ALT levels (U/L) in serum as % of saline” value is 177.3 % of saline in “ALT in serum (Example 7)” (Day 7) and 108.5 % of saline in the data set “ALT in serum (Example 7)” (Day 14).
